Experimental data: the Human Domainome abundance scans (Beltran et al. 2025)
± gives the uncertainty stated by the source.

B1: TOX high mobility group box family member 3, residues 256 to 323; numbered along this chain, O15405 (parent)
chain: QKPVSAYALFFRDTQAAIKGQNPNATFGEVSKIVASMWDSLGEEQKQVYKRKTEAAKKEYLKALAAYR

Variants of: B1
Test: abundance fitness (aPCA) (normalised: wild type 0, dead -1); higher = more abundant; growth selection in yeast, the domain comes from the species named
Settings: Homo sapiens

Variant | abundance fitness
R51Q | -0.041 ± 0.058
R51L | 0.021 ± 0.04
R51I | -0.175 ± 0.082
A56K | 0.17 ± 0.071
E59Y | -0.577 ± 0.19
E59L | -0.39 ± 0.058
E59K | 0.024 ± 0.084
E59G | -0.242 ± 0.071
E59Q | -0.205 ± 0.067
E59V | -0.3 ± 0.071
K52P | -0.303 ± 0.079
K52R | 0.008 ± 0.042
G42K | -0.037 ± 0.077
G42F | -1.05 ± 0.32
G42Q | -0.153 ± 0.09
G42W | -0.858 ± 0.14
V30C | -0.309 ± 0.091
L41P | -0.724 ± 0.2
L41E | -0.922 ± 0.16
K62M | -0.205 ± 0.057
K62L | -0.344 ± 0.049
K62D | 0.019 ± 0.078
A65H | -0.081 ± 0.12
S40P | -1.01 ± 0.16

Variant | abundance fitness
F27W | -0.129 ± 0.053
F27S | 0.154 ± 0.051
V48G | 0.505 ± 0.26
D39S | 0.021 ± 0.045
D39C | -0.055 ± 0.43
L61I | -0.029 ± 0.062
L61T | 0.135 ± 0.065
L61R | 0.015 ± 0.045
L9G | -0.303 ± 0.083
L9F | -0.31 ± 0.11
L9W | -0.218 ± 0.11
L9E | 0.262 ± 0.16
L9H | -0.394 ± 0.19
L9Q | 0.053 ± 0.073
K57L | -0.346 ± 0.056
Q1I | -0.035 ± 0.11
Q1R | -0.087 ± 0.06
Q47R | -0.032 ± 0.037
Q47L | -0.211 ± 0.061
Q47G | -0.103 ± 0.05
F11N | -0.19 ± 0.13
F11I | -0.676 ± 0.43
F11Q | -0.171 ± 0.14
F11C | -0.302 ± 0.13

Variant | abundance fitness
F11V | -0.14 ± 0.07
T26W | -0.811 ± 0.14
K19F | -0.139 ± 0.099
K19T | -0.221 ± 0.063
K19A | -0.051 ± 0.063
S36Y | -0.182 ± 0.08
R68A | -0.07 ± 0.1
R68N | 0.198 ± 0.24
R68M | -0.247 ± 0.11
R68Y | -0.292 ± 0.11
Y67D | 0.256 ± 0.085
F10S | -0.267 ± 0.15
F10P | -0.572 ± 0.28
N22S | -0.451 ± 0.071
K32E | -0.167 ± 0.064
K32D | -0.078 ± 0.075
K32Q | -0.337 ± 0.097
A66T | 0.184 ± 0.061
A66E | 0.218 ± 0.067
A35S | -0.037 ± 0.05
A35H | 0.001 ± 0.1
A35M | -0.22 ± 0.09
Q45D | 0.132 ± 0.16
Q45R | -0.059 ± 0.045

Variant | abundance fitness
Q45G | -0.17 ± 0.055
Q45P | -0.546 ± 0.066
Q45C | -0.486 ± 0.087
A25S | -0.287 ± 0.045
D13I | -0.442 ± 0.095
Q15N | -0.212 ± 0.3
Q15R | -0.309 ± 0.072
L64Y | -0.172 ± 0.075
L64R | 0.088 ± 0.054
L64T | 0.236 ± 0.056
I18K | -1.18 ± 0.43
I18Y | 0.02 ± 0.25
I18P | -1.03 ± 0.18
A55P | -0.157 ± 0.051
E54W | -0.331 ± 0.067
E54V | -0.239 ± 0.053
T14Q | 0.146 ± 0.096
T14P | -0.62 ± 0.12
A17R | 0.083 ± 0.055
A17Q | -0.004 ± 0.072
A17L | -0.071 ± 0.056
A17E | -0.082 ± 0.1
A17I | -0.012 ± 0.076
S31Q | -0.063 ± 0.083

Variant | abundance fitness
S31N | -0.213 ± 0.16
S31T | -0.118 ± 0.08
R12Y | -0.135 ± 0.19
R12K | 0.022 ± 0.12
R12A | -0.116 ± 0.078
W38T | -1.28 ± 0.37
W38D | -0.789 ± 0.21
W38S | -0.863 ± 0.098
W38M | -0.416 ± 0.098
V34N | -0.655 ± 0.27
V34Y | -0.974 ± 0.22
V34T | -0.444 ± 0.11
V34L | -0.529 ± 0.069
V34E | -0.963 ± 0.17
I33K | -0.01 ± 0.081
I33M | 0.101 ± 0.071
I33V | -0.159 ± 0.052
I33D | -0.771 ± 0.18
I33P | -1.01 ± 0.12
A16N | 0.078 ± 0.13
A16C | -0.376 ± 0.086
A16L | -0.178 ± 0.059
A16G | -0.209 ± 0.074
A16M | -0.401 ± 0.14

Variant | abundance fitness
K58I | -0.204 ± 0.13
K58Q | 0.039 ± 0.072
K58W | -0.351 ± 0.083
E43A | -0.085 ± 0.054
E43H | -0.27 ± 0.13
E43T | -0.022 ± 0.06
N24S | 0.034 ± 0.052
N24F | -0.154 ± 0.074
N24G | 0.096 ± 0.056
E29S | -0.341 ± 0.067
E29V | -0.618 ± 0.099
E29F | -0.431 ± 0.14
G28D | 0.098 ± 0.083
G28Q | -0.159 ± 0.1
G28M | -0.179 ± 0.063
G28W | -0.175 ± 0.06
G28V | -0.12 ± 0.056
G20C | -0.116 ± 0.061
G20Q | 0.224 ± 0.066
Y7V | -0.651 ± 0.13
Y7F | -0.339 ± 0.15
T53R | -0.111 ± 0.043
P3L | -0.145 ± 0.045
Q21L | -0.219 ± 0.056

Variant | abundance fitness
M37W | -0.874 ± 0.12
M37R | 0.013 ± 0.042
E44L | -0.556 ± 0.062
E44A | -0.116 ± 0.051
E44Y | -0.955 ± 0.25
S5I | -0.94 ± 0.39
S5Q | -0.527 ± 0.28
S5W | -0.491 ± 0.14
A6C | -0.372 ± 0.17
A6E | 0.156 ± 0.16
Y60E | 0.08 ± 0.062
Y60Q | 0.128 ± 0.069
Y60R | -0.129 ± 0.069
P23F | -1.16 ± 0.26
P23R | -0.454 ± 0.056
P23A | -0.32 ± 0.084
P23E | -0.558 ± 0.11
V4Q | -0.073 ± 0.058
V4P | -0.001 ± 0.077
V4R | -0.109 ± 0.043
K2I | -0.003 ± 0.043
K2L | -0.428 ± 0.066
K2P | -0.267 ± 0.085
